How the values were obtained:
CD16A (FcγRIIIA) = target: T1, CD16A (FcγRIIIA) (human, UniProt P08637 17-254); assay: flow cytometry on primary NK cells
T1 construct: whole, on cells; also called CD16A on primary NK cells
Method: Aliquots of the indicated cell lines were incubated with […] of serial dilutions of His-tagged antibodies in FACS buffer (PBS, Invitrogen, cat.: 14190-169) containing 2% heat-inactivated FCS (Invitrogen, cat.: 10270-106), 0.1% sodium azide (Roth, Karlsruhe, Germany, cat.: A1430.0100) for 45 min on ice. Staining of NK-cells was performed in FACS buffer supplemented with 1 mg/mL polyclonal human antibody (Gammanorm, Octapharma, Langenfeld, Germany, cat.: PZN-2451445) to block binding of antibodies to Fc[…] receptors.
After repeated washing with FACS buffer, cell-bound antibodies were detected with 10 μg/mL anti-His mAb 13/45/31-2 (Dianova, Hamburg, Germany, cat.: DIA910-1MG) followed by 15 μg/mL FITC-conjugated goat anti-mouse antibody (Dianova, cat.: 115-095-062). The cells were then washed again and resuspended in 0.2 mL of FACS buffer containing 2 μg/mL propidium iodide (PI) (Sigma, cat.: P4170) in order to exclude dead cells. The fluorescence of 2-5×10³ living cells was measured using a Beckman-Coulter FC500 MPL flow cytometer using the MXP software (Beckman-Coulter, Krefeld, Germany) or a Millipore Guava EasyCyte flow cytometer (Merck Millipore, Schwalbach, Germany). Mean fluorescence intensities of the cell samples were calculated using CXP software (Beckman-Coulter) or Incyte software (Merck Millipore, Schwalbach, Germany). After subtracting the fluorescence intensity values of the cells stained with the secondary and tertiary reagents alone, the values were used for analysis using the GraphPad Prism (GraphPad Prism version 6.00 for Windows, GraphPad Software, La Jolla Calif. USA). For the calculation of KD, the equation for one-site-binding (hyperbolic) was used.

CD30 [1] = target: T2, CD30 (UniProt P28908 19-595, limits assumed); assay: flow cytometry on KARPAS-299 cells, anti-His detection
T2 construct: whole, on cells; also called CD30 on CD19-/CD30+ KARPAS-299 cells
T2 sequence (looked up): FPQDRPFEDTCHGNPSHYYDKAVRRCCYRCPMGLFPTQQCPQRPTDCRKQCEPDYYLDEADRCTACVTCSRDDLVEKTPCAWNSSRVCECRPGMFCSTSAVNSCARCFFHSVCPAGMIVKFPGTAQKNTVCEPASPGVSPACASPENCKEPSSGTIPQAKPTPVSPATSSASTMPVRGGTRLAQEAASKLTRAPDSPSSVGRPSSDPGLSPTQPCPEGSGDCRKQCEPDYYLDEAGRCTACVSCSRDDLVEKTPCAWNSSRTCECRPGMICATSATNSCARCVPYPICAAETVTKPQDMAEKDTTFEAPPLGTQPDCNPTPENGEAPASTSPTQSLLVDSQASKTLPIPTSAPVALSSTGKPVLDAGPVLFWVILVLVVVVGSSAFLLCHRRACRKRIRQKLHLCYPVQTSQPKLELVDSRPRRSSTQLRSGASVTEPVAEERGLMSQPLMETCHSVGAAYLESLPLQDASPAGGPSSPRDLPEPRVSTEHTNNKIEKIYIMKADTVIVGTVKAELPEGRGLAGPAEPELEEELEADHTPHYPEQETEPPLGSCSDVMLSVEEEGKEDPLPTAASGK
Method: (§1) Single-positive CD19+/CD30− Raji and CD19-/CD30+ KARPAS-299 cells as well as double-positive CD19+/CD30+ MEC-1 were stained with serial dilutions of the trispecific antibody molecules and cell surface bound antibodies were detected by mAb anti-His followed by FITC-conjugated goat anti-mouse IgG. Mean fluorescence intensities determined by flow cytometry were used to calculate KD values by non-linear regression. KD values for trispecific antibody molecules were determined in two independent experiments. […]
(§2) After repeated washing with FACS buffer, cell-bound antibodies were detected with 10 μg/mL anti-His mAb 13/45/31-2 (Dianova, Hamburg, Germany, cat.: DIA910-1MG) followed by 15 μg/mL FITC-conjugated goat anti-mouse antibody (Dianova, cat.: 115-095-062). […] The fluorescence of 2-5×10³ living cells was measured using a Beckman-Coulter FC500 MPL flow cytometer using the MXP software (Beckman-Coulter, Krefeld, Germany) or a Millipore Guava EasyCyte flow cytometer (Merck Millipore, Schwalbach, Germany). Mean fluorescence intensities of the cell samples were calculated using CXP software (Beckman-Coulter) or Incyte software (Merck Millipore, Schwalbach, Germany). […]

CD19 [2] = target: T3, CD19 (UniProt P15391 20-556, limits assumed); assay: flow cytometry on Raji cells, anti-His detection
T3 construct: whole, on cells; Raji is a human cell line; also called CD19 on CD19+/CD30- Raji cells
T3 sequence (looked up): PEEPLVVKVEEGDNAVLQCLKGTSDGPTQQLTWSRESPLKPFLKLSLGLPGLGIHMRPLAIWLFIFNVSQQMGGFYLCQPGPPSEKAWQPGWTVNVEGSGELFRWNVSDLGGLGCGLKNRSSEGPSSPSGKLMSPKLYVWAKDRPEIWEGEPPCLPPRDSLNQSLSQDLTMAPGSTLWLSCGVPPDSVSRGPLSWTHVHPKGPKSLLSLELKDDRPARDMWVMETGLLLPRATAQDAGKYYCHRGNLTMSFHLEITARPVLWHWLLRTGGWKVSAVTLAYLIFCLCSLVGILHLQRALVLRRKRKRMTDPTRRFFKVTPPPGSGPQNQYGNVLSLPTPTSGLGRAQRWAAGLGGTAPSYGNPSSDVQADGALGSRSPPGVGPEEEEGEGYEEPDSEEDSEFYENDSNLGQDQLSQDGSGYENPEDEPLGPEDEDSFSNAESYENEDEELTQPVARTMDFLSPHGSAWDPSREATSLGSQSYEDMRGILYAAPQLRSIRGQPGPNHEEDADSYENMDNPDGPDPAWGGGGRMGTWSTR
Method: as §1, §2

CD30 [3] = target: T2, CD30; assay: flow cytometry on Karpas-299 cells
Method: as §1, §2

CD19 [4] = target: T3, CD19; assay: flow cytometry on Raji cells
Method: as §1, §2

Measured: binding result

T1 sequence (P08637 17-254): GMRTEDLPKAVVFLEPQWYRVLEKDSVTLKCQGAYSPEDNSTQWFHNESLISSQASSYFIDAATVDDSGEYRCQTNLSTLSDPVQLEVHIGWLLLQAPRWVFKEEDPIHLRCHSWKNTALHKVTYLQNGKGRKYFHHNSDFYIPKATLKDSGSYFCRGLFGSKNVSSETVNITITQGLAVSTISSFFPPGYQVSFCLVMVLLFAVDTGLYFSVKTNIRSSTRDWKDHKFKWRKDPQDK

B1: aTriFlex_101 (other)
chain 1: QVQLQQSGAELARPGASVKMSCKASGYTFTTYTIHWVRQRPGHDLEWIGYINPSSGYSDYNQNFKGKTTLTADKSSNTAYMQLNSLTSEDSAVYYCARRADYGNYEYTWFAYWGQGTTVTVSSGGSGGSGGSGGSGGSGGSDIVMTQSPKFMSTSVGDRVTVTCKASQNVGTNVAWFQQKPGQSPKVLIYSASYRYSGVPDRFTGSGSGTDFTLTISNVQSEDLAEYFCQQYHTYPLTFGGGTKLEINGGSGGSGGSQVQLVQSGAEVKKPGESLKVSCKASGYTFTSYYMHWVRQAPGQGLEWMGIINPSGGSTSYAQKFQGRVTMTRDTSTSTVYMELSSLRSEDTAVYYCARGSAYYYDFADYWGQGTLVTVSSGGSGGSGGSQVQLVQSGAEVKKPGESLKVSCKASGYTFTSYYMHWVRQAPGQGLEWMGIINPSGGSTSYAQKFQGRVTMTRDTSTSTVYMELSSLRSEDTAVYYCARGSAYYYDFADYWGQGTLVTVSSGGSGGSGGSSYVLTQPPSVSVAPGQTARITCGGNNIGSKTVHWYQQKPGQAPVLVVYDDSDRPSGIPERFSGSNSGNTATLTISRVEAGDEADYYCQVGTDWSDHLQVFGGGTKLTVLGGSGGSGGSGGSGGSGGSGGSEVQLVQSGAEVKKPGESLKISCKGSGYSFTSNWIGWVRQMPGKGLEWMGMIWPGDSDTMYSPSFQGQVTISADESINTAYLQWSSLKASDTAMYYCARRETTTVGRYYYAMDYWGQGTLVTVSSAAAGSHHHHHH
chain 2: SYVLTQPSSVSVAPGQTATISCGGHNIGSKNVHWYQQRPGQSPVLVIYQDNKRPSGIPERFSGSNSGNTATLTISGTQAMDEADYYCQVWDNYSVLFGGGTKLTVLGGSGGSGGSSYVLTQPSSVSVAPGQTATISCGGHNIGSKNVHWYQQRPGQSPVLVIYQDNKRPSGIPERFSGSNSGNTATLTISGTQAMDEADYYCQVWDNYSVLFGGGTKLTVLAAAGSDYKDDDDK
notes: Tetravalent, trispecific (CD30, CD19, CD16A) Fv antibody without constant domains; heterodimer of two non-covalently associated polypeptides; also called antibody molecule a); construct a)
binds: CD16A (FcγRIIIA) | CD30 [1] | CD19 [2]

B2: aTriFlex_102 (other)
chain 1: SYVLTQPPSVSVAPGQTARITCGGNNIGSKTVHWYQQKPGQAPVLVVYDDSDRPSGIPERFSGSNSGNTATLTISRVEAGDEADYYCQVGTDWSDHLQVFGGGTKLTVLGGSGGSGGSGGSGGSGGSGGSEVQLVQSGAEVKKPGESLKISCKGSGYSFTSNWIGWVRQMPGKGLEWMGMIWPGDSDTMYSPSFQGQVTISADESINTAYLQWSSLKASDTAMYYCARRETTTVGRYYYAMDYWGQGTLVTVSSGGSGGSGGSQVQLVQSGAEVKKPGESLKVSCKASGYTFTSYYMHWVRQAPGQGLEWMGIINPSGGSTSYAQKFQGRVTMTRDTSTSTVYMELSSLRSEDTAVYYCARGSAYYYDFADYWGQGTLVTVSSGGSGGSGGSQVQLVQSGAEVKKPGESLKVSCKASGYTFTSYYMHWVRQAPGQGLEWMGIINPSGGSTSYAQKFQGRVTMTRDTSTSTVYMELSSLRSEDTAVYYCARGSAYYYDFADYWGQGTLVTVSSGGSGGSGGSQVQLQQSGAELARPGASVKMSCKASGYTFTTYTIHWVRQRPGHDLEWIGYINPSSGYSDYNQNFKGKTTLTADKSSNTAYMQLNSLTSEDSAVYYCARRADYGNYEYTWFAYWGQGTTVTVSSGGSGGSGGSGGSGGSGGSDIVMTQSPKFMSTSVGDRVTVTCKASQNVGTNVAWFQQKPGQSPKVLIYSASYRYSGVPDRFTGSGSGTDFTLTISNVQSEDLAEYFCQQYHTYPLTFGGGTKLEINAAAGSHHHHHH
chain 2: B1 chain 2
notes: Tetravalent, trispecific (CD30, CD19, CD16A) Fv antibody without constant domains; heterodimer of two polypeptides; also called antibody molecule b); construct b)
binds: CD16A (FcγRIIIA) | CD30 [1] | CD19 [2]

B3: aTriFlex_104 (other)
chain 1: QVQLQQSGAELARPGASVKMSCKASGYTFTTYTIHWVRQRPGHDLEWIGYINPSSGYSDYNQNFKGKTTLTADKSSNTAYMQLNSLTSEDSAVYYCARRADYGNYEYTWFAYWGQGTTVTVSSGGSGGSGGSGGSGGSGGSDIVMTQSPKFMSTSVGDRVTVTCKASQNVGTNVAWFQQKPGQSPKVLIYSASYRYSGVPDRFTGSGSGTDFTLTISNVQSEDLAEYFCQQYHTYPLTFGGGTKLEINGGSGGSGGSSYVLTQPSSVSVAPGQTATISCGGHNIGSKNVHWYQQRPGQSPVLVIYQDNKRPSGIPERFSGSNSGNTATLTISGTQAMDEADYYCQVWDNYSVLFGGGTKLTVLGGSGGSGGSSYVLTQPSSVSVAPGQTATISCGGHNIGSKNVHWYQQRPGQSPVLVIYQDNKRPSGIPERFSGSNSGNTATLTISGTQAMDEADYYCQVWDNYSVLFGGGTKLTVLGGSGGSGGSSYVLTQPPSVSVAPGQTARITCGGNNIGSKTVHWYQQKPGQAPVLVVYDDSDRPSGIPERFSGSNSGNTATLTISRVEAGDEADYYCQVGTDWSDHLQVFGGGTKLTVLGGSGGSGGSGGSGGSGGSGGSEVQLVQSGAEVKKPGESLKISCKGSGYSFTSNWIGWVRQMPGKGLEWMGMIWPGDSDTMYSPSFQGQVTISADESINTAYLQWSSLKASDTAMYYCARRETTTVGRYYYAMDYWGQGTLVTVSSAAAGSDYKDDDDK
chain 2: QVQLVQSGAEVKKPGESLKVSCKASGYTFTSYYMHWVRQAPGQGLEWMGIINPSGGSTSYAQKFQGRVTMTRDTSTSTVYMELSSLRSEDTAVYYCARGSAYYYDFADYWGQGTLVTVSSGGSGGSGGSQVQLVQSGAEVKKPGESLKVSCKASGYTFTSYYMHWVRQAPGQGLEWMGIINPSGGSTSYAQKFQGRVTMTRDTSTSTVYMELSSLRSEDTAVYYCARGSAYYYDFADYWGQGTLVTVSSAAAGSHHHHHH
notes: Tetravalent, trispecific (CD30, CD19, CD16A) Fv antibody without constant domains; heterodimer of two polypeptides; also called antibody molecule d); construct d)
binds: CD30 [3] | CD16A (FcγRIIIA) | CD19 [4]

From patent publication US20190040155A1 (AFFIMED, published 2019)
